Reference: patent US20240052055A1

Key:
[1] = biological target: human GPC3 on cells (HepG2 endogenous; CHO-K1 recombinant clones CHOK1-hGPC3.1C3, 2B5, 3E9) (human) (UniProt P51654); assay: FACS on HepG2 cells
[2] = biological target: human GPC3 (Gln25-His559)-His protein (Acro, Cat. No. GP3-H52H4) (human) (UniProt P51654); assay: ELISA; antibody 0.0001 nM
[3] = biological target: human GPC3 on cells (HepG2 endogenous; CHO-K1 recombinant clones CHOK1-hGPC3.1C3, 2B5, 3E9) (human) (UniProt P51654); assay: FACS on CHO-K1-human GPC3 cells
[4] = biological target: human GPC3 on cells (HepG2 endogenous; CHO-K1 recombinant clones CHOK1-hGPC3.1C3, 2B5, 3E9) (human) (UniProt P51654); assay: FACS on CHOK1-hGPC3.3E9 cells
[5] = biological target: human GPC3 on cells (HepG2 endogenous; CHO-K1 recombinant clones CHOK1-hGPC3.1C3, 2B5, 3E9) (human) (UniProt P51654); assay: FACS on HepG2 cells; remark: listed apart in the source
[6] = biological target: mouse GPC3-His protein (Sino Biological, Cat. No. 50989-M08B) (mouse) (UniProt Q8CFZ4); assay: ELISA; antibody 0.01 nM
[7] = biological target: human GPC3 (Gln25-His559)-His protein (Acro, Cat. No. GP3-H52H4) (human) (UniProt P51654); assay: ELISA; antibody 0.01 nM
[8] = biological target: monkey GPC3-His protein (Acro, Cat. No. GP3-05225) (monkey) (UniProt A5A6P7); assay: ELISA; antibody 0.1 nM
[9] = biological target: human GPC3 (Gln25-His559)-His protein (Acro, Cat. No. GP3-H52H4) (human) (UniProt P51654); assay: ELISA; antibody 0.1 nM
[10] = biological target: mouse GPC3-His protein (Sino Biological, Cat. No. 50989-M08B) (mouse) (UniProt Q8CFZ4); assay: ELISA; antibody 0.001 nM
[11] = biological target: monkey GPC3-His protein (Acro, Cat. No. GP3-05225) (monkey) (UniProt A5A6P7); assay: ELISA; antibody 0.001 nM
[12] = biological target: human GPC3 (Gln25-His559)-His protein (Acro, Cat. No. GP3-H52H4) (human) (UniProt P51654); assay: ELISA; antibody 0.001 nM
[13] = biological target: mouse GPC3-His protein (Sino Biological, Cat. No. 50989-M08B) (mouse) (UniProt Q8CFZ4); assay: ELISA; antibody 10 nM
[14] = biological target: monkey GPC3-His protein (Acro, Cat. No. GP3-05225) (monkey) (UniProt A5A6P7); assay: ELISA; antibody 10 nM
[15] = biological target: human GPC3 (Gln25-His559)-His protein (Acro, Cat. No. GP3-H52H4) (human) (UniProt P51654); assay: ELISA; antibody 10 nM
[16] = biological target: mouse GPC3-His protein (Sino Biological, Cat. No. 50989-M08B) (mouse) (UniProt Q8CFZ4); assay: ELISA; antibody 100 nM
[17] = biological target: monkey GPC3-His protein (Acro, Cat. No. GP3-05225) (monkey) (UniProt A5A6P7); assay: ELISA; antibody 100 nM
[18] = biological target: human GPC3 (Gln25-His559)-His protein (Acro, Cat. No. GP3-H52H4) (human) (UniProt P51654); assay: ELISA; antibody 100 nM
[19] = biological target: mouse GPC3-His protein (Sino Biological, Cat. No. 50989-M08B) (mouse) (UniProt Q8CFZ4); assay: ELISA; antibody 0.0001 nM
[20] = biological target: monkey GPC3-His protein (Acro, Cat. No. GP3-05225) (monkey) (UniProt A5A6P7); assay: ELISA; antibody 0.0001 nM
[21] = biological target: human GPC3 (Gln25-His559)-His protein (Acro, Cat. No. GP3-H52H4) (human) (UniProt P51654); assay: ELISA; antibody 0.0001 nM; remark: listed apart in the source
[22] = biological target: human GPC3 on cells (HepG2 endogenous; CHO-K1 recombinant clones CHOK1-hGPC3.1C3, 2B5, 3E9) (human) (UniProt P51654); assay: FACS on CHOK1-hGPC3.1C3 cells
[23] = biological target: human GPC3 (Gln25-His559)-His protein (Acro, Cat. No. GP3-H52H4) (human) (UniProt P51654); assay: ELISA; antibody 0.001 nM; remark: listed apart in the source
[24] = biological target: monkey GPC3 on HEK293T cells (monkey); assay: FACS on HEK293T-monkey GPC3 cells
[25] = biological target: human GPC3 (Gln25-His559)-His protein (Acro, Cat. No. GP3-H52H4) (human) (UniProt P51654); assay: ELISA; antibody 1 nM
[26] = biological target: human GPC3 on cells (HepG2 endogenous; CHO-K1 recombinant clones CHOK1-hGPC3.1C3, 2B5, 3E9) (human) (UniProt P51654); assay: FACS on CHOK1-hGPC3.2B5 cells
[27] = biological target: human GPC3 (Gln25-His559)-His protein (Acro, Cat. No. GP3-H52H4) (human) (UniProt P51654); assay: ELISA; antibody 0.01 nM; remark: listed apart in the source
[28] = biological target: human GPC3 (Gln25-His559)-His protein (Acro, Cat. No. GP3-H52H4) (human) (UniProt P51654); assay: ELISA; antibody 0.1 nM; remark: listed apart in the source
[29] = biological target: human GPC3 (Gln25-His559)-His protein (Acro, Cat. No. GP3-H52H4) (human) (UniProt P51654); assay: ELISA; antibody 10 nM; remark: listed apart in the source
[30] = biological target: mouse GPC3-His protein (Sino Biological, Cat. No. 50989-M08B) (mouse) (UniProt Q8CFZ4); assay: ELISA; antibody 1 nM
[31] = biological target: monkey GPC3-His protein (Acro, Cat. No. GP3-05225) (monkey) (UniProt A5A6P7); assay: ELISA; antibody 1 nM
[32] = biological target: human GPC3 (Gln25-His559)-His protein (Acro, Cat. No. GP3-H52H4) (human) (UniProt P51654); assay: ELISA; antibody 1 nM; remark: listed apart in the source
[33] = biological target: human GPC3 (Gln25-His559)-His protein (Acro, Cat. No. GP3-H52H4) (human) (UniProt P51654); assay: ELISA; antibody 100 nM; remark: listed apart in the source

Sequence of UniProt A5A6P7 (A5A6P7 other isoform, or with tags, fused parts or gaps limits assumed): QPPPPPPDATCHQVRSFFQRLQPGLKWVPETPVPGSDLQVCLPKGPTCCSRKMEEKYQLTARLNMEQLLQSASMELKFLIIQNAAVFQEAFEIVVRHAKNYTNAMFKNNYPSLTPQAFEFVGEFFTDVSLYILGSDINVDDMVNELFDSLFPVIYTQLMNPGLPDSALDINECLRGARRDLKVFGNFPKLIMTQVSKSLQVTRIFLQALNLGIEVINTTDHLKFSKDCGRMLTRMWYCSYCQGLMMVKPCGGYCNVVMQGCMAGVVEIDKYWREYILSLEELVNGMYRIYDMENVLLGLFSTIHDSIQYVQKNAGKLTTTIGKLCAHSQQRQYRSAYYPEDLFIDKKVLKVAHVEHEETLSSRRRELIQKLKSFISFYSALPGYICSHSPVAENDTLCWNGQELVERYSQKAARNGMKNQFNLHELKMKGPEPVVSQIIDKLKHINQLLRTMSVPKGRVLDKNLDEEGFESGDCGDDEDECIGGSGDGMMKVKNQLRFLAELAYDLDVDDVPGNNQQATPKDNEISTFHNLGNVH
Sequence of UniProt Q8CFZ4 (Q8CFZ4 25-558 limits assumed): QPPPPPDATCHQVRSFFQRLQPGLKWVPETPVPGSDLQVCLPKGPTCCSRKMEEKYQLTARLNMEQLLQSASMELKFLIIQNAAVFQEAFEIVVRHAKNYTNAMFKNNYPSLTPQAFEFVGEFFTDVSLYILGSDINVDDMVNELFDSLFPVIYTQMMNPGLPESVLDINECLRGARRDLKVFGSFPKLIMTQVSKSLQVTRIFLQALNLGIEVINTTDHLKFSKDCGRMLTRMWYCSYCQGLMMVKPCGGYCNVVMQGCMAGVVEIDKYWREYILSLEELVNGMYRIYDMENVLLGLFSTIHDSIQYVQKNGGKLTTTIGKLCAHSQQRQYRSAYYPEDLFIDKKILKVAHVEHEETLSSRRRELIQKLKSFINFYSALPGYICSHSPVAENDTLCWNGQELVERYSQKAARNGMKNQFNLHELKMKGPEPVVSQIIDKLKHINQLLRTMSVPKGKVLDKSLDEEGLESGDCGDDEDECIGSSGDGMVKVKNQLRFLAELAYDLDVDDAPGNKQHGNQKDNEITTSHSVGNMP
Sequence of monkey GPC3 on HEK293T cells (monkey) (chain, as listed by the source limits assumed): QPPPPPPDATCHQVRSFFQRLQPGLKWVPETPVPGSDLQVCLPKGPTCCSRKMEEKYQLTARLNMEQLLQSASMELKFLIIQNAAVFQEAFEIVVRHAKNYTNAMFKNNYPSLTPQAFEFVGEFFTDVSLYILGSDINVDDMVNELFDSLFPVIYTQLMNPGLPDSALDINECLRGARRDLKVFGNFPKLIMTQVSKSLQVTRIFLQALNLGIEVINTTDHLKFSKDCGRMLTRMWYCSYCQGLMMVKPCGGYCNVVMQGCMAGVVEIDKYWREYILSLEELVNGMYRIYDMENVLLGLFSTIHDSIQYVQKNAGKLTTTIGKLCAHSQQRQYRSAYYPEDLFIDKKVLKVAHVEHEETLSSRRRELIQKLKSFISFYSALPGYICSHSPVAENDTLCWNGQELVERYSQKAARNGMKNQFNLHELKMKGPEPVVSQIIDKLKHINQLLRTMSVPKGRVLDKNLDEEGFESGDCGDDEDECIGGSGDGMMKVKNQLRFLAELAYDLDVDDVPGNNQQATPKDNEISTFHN

human IgG1 (IgG subtype control) (antibody)
Max MFI [1]: 155 | OD450 [2]: 0.047 | Max MFI [3]: 88 | Mean fluorescence density of cells [4]: 19.3 | Max MFI [5]: 124 | OD450 [6]: 0.052 | OD450 [7]: 0.06 | OD450 [8]: 0.045 | OD450 [9]: 0.06 | OD450 [10]: 0.051 | OD450 [11]: 0.044 | OD450 [12]: 0.06 | OD450 [13]: 0.055 | OD450 [14]: 0.047 | OD450 [15]: 0.05 | OD450 [16]: 0.105 | OD450 [17]: 0.056 | OD450 [18]: 0.072 | OD450 [19]: 0.049 | OD450 [20]: 0.048 | OD450 [21]: 0.06 | Mean fluorescence density of cells [22]: 19.3 | OD450 [23]: 0.048 | Max MFI [24]: 107 | OD450 [25]: 0.06 | Mean fluorescence density of cells [26]: 19.3 | OD450 [27]: 0.048 | OD450 [28]: 0.05 | OD450 [29]: 0.1 | OD450 [30]: 0.05 | OD450 [31]: 0.044 | OD450 [32]: 0.048 | OD450 [33]: 0.44
